# Data reported in PMC3818214, “Novel Disulfide Bond-Mediated Dimerization of the CARD Domain Was Revealed by the Crystal Structure of CARMA1 CARD” (PLoS ONE, 2013).
# Target: the molecule itself
# Test: SEC-MALS; Superdex 200 HR 10/30, 20 mM Tris HCl, 150 mM NaCl, without DTT; mini-DAWN EOS and Optilab DSP detectors
protein,measurement,value
"mouse CARMA1 CARD (amino acids 14-109) with C-terminal His-tag (domain or fragment, UniProt Q8CIS0 14-109, looked up, CARMA1 (CARD11), mouse, CARD domain, amino acids 14-109; the solution experiments used the plain protein; Model built from residue 22 to 108, loop 64-70 missing; Vector pOKD (home-made); also called CARD11 CARD; not shown: His-tag, C-terminal, kept) TLKDEEEALWDNVECNRHMLSRYINPAKLTPYLRQCKVIDEQDEDEVLNAPMLPSKINRAGRLLDILHTKGQRGYVVFLESLEFYYPELYKLVTGK",stoichiometry N,2
